Columns and labels:
OST-NLS-mCherry-NRF2 = OST-NLS-mCherry-NRF2 (UniProt Q16236); assay: pull-down
OST-progerin (human) = OST-progerin (human) (UniProt P02545); assay: pull-down

## HA-progerin (from UniProt P02545-6 1-614) (natural protein)
OST-NLS-mCherry-NRF2
  interaction relative to WT lamin A: 248%

B1: FLAG-NLS-NRF2 (natural protein)
chain: MMDLELPPPGLPSQQDMDLIDILWRQDIDLGVSREVFDFSQRRKEYELEKQKKLEKERQEQLQKEQEKAFFAQLQLDEETGEFLPIQPAQHIQSETSGSANYSQVAHIPKSDALYFDDCMQLLAQTFPFVDDNEVSSATFQSLVPDIPGHIESPVFIATNQAQSPETSVAQVAPVDLDGMQQDIEQVWEELLSIPELQCLNIENDKLVETTMVPSPEAKLTEVDNYHFYSSIPSMEKEVGNCSPHFLNAFEDSFSSILSTEDPNQLTVNSLNSDATVNTDFGDEFYSAFIAEPSISNSMPSPATLSHSLSELLNGPIDVSDLSLCKAFNQNHPESTAEFNDSDSGISLNTSPSVASPEHSVESSSYGDTLLGLSDSEVEELDSAPGSVKQNGPKTPVHSSGDMVQPLSPSQGQSTHVHDAQCENTPEKELPVSPGHRKTPFTKDKHSSRLEAHLTRDELRAKALHIPFPVEKIINLPVVDFNEMMSKEQFNEAQLALIRDIRRRGKNKVAAQNCRKRKLENIVELEQDLDHLKDEKEKLLKEKGENDKSLHLLKKQLSTLYLEVFSMLRDEDGKPYSPSEYSLQQTRDGNVFLVPKSKKPDVKKN
OST-progerin (human)
  NRF2 pulled down relative to OST-lamin A: 142%

B2: recombinant HIS6x-NRF2 (natural protein)
chain: B1 chain
OST-progerin (human)
  NRF2 bound relative to OST-lamin A: 275%
